The data set deals with T1, OMNI-47 (Peptoniphilus obesi ph1).
T1 sequence: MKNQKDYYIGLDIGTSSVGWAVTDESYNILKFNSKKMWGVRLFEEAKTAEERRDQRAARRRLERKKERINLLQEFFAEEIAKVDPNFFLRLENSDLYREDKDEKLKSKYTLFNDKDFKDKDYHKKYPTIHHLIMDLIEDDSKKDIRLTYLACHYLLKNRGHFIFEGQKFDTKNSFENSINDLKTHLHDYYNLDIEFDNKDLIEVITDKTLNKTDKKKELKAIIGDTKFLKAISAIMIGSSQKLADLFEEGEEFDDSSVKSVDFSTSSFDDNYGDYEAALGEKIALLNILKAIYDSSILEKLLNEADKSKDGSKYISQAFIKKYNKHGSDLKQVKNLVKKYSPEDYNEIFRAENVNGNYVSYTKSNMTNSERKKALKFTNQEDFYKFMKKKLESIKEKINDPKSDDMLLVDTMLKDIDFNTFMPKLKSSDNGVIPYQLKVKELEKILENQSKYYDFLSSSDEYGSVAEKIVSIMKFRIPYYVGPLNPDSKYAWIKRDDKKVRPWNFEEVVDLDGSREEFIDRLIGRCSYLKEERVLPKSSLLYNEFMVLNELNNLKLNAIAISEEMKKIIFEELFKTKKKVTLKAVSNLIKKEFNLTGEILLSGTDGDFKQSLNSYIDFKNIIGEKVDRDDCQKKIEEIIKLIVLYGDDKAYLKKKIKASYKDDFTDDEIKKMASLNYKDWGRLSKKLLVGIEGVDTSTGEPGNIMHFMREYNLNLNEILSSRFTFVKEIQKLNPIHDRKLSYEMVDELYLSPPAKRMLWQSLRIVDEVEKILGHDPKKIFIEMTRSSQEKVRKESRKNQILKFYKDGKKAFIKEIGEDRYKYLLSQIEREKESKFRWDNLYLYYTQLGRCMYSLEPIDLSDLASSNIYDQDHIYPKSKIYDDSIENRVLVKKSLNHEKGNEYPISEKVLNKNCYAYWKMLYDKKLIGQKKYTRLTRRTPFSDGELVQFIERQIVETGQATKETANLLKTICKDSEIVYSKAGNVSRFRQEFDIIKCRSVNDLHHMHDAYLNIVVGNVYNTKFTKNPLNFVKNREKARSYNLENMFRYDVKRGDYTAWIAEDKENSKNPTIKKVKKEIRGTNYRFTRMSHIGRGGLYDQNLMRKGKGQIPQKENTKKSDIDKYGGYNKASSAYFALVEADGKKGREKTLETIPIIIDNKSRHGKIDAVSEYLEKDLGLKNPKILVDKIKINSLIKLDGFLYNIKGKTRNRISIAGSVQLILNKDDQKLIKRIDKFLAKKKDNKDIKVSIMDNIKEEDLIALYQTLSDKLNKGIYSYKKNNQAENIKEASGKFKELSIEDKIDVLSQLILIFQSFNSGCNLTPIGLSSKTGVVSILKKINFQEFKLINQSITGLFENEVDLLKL
Put plainly: cleavage_in_vitro. The following applies: TXTL; PAM NVYR (specific NRTA); V1, V2 tested.

In turn, “GGAAGAGCAGAGCCUUGGUCUCGUUUGAGAGUUAUGGAAACAUGAUGAGUUCAAAUAAAAAUUUAUUCAAAUCGCCCAUUAUGGGCCGCAGAUGUUCUGCAUUAUAUGCUUGCAAGUUGCAAGCUUUUUUU / GGAAGAGCAGAGCCTTGGTCTCNNNNNNNN / NNNNNNNNGAGACCAAGGCTCTGCTCTTCC [OMNI-47 T2 sgRNA V1 ; pbPOS T2 protospacer 8N PAM library]” returned an activity (1-depletion score) of 0.98.
